For the assay, the target named is T1, Flag-Drosha S300E,S302D (phospho-mimic) (UniProt Q9NRR4 1-1374, S300E | S302D).
T1 construct: Drosha with S300E and S302D, Flag-tagged as m1; also called phospho-mimic Drosha; source: HEK293T, transfected, in lysate
T1 sequence (looked up): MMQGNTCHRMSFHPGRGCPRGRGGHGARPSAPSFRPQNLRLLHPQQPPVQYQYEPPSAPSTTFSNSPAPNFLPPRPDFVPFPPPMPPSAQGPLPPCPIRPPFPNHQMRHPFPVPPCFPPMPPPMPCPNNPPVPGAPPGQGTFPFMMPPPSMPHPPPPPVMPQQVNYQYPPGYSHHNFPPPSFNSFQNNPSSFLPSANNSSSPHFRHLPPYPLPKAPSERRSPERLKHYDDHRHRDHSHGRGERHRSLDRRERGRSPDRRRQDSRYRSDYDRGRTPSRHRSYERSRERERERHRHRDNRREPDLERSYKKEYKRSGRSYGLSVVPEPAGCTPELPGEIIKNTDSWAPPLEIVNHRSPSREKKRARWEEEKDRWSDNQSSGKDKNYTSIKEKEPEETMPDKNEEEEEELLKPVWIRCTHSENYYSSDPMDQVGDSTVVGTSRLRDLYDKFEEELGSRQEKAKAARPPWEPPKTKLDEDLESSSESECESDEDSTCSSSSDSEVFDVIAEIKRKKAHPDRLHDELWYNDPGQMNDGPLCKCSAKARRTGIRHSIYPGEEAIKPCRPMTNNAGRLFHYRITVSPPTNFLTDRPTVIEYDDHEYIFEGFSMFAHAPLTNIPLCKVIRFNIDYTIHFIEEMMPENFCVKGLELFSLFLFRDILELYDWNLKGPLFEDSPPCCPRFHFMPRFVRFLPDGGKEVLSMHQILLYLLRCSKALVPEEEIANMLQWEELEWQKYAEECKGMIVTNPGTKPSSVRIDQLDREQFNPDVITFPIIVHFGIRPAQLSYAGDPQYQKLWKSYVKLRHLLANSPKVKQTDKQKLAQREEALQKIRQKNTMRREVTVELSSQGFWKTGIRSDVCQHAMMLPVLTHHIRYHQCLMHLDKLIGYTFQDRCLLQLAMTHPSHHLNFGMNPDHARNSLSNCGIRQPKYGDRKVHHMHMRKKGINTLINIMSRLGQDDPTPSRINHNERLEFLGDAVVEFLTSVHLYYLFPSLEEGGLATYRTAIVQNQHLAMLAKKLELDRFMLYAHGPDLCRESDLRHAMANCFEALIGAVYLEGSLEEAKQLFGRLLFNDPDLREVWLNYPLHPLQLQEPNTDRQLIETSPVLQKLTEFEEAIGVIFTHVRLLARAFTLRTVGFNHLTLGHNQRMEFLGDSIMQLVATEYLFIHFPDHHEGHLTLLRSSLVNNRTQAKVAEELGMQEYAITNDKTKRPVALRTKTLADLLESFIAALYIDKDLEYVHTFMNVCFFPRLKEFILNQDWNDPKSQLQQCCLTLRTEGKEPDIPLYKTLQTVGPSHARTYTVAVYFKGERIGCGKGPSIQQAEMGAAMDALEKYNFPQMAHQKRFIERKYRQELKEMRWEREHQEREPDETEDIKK
Briefly: co-IP; Flag immunoprecipitates of HEK293T cells transfected with Flag-Drosha (WT or mutants), blotted for PLK1 or DGCR8; cells treated with DMSO, RO-520 (100 nM) or NMS (500 nM) for 16 h, or samples with RNase A; mutant panel 72 h after transfection. Particulars: partners not purified.

B1: DGCR8 (natural protein, human (endogenous in HEK293T), UniProt Q8WYQ5 1-773, looked up)
chain: METDESPSPLPCGPAGEAVMESRARPFQALPREQSPPPPLQTSSGAEVMDVGSGGDGQSELPAEDPFNFYGASLLSKGSFSKGRLLIDPNCSGHSPRTARHAPAVRKFSPDLKLLKDVKISVSFTESCRSKDRKVLYTGAERDVRAECGLLLSPVSGDVHACPFGGSVGDGVGIGGESADKKDEENELDQEKRVEYAVLDELEDFTDNLELDEEGAGGFTAKAIVQRDRVDEEALNFPYEDDFDNDVDALLEEGLCAPKKRRTEEKYGGDSDHPSDGETSVQPMMTKIKTVLKSRGRPPTEPLPDGWIMTFHNSGVPVYLHRESRVVTWSRPYFLGTGSIRKHDPPLSSIPCLHYKKMKDNEEREQSSDLTPSGDVSPVKPLSRSAELEFPLDEPDSMGADPGPPDEKDPLGAEAAPGALGQVKAKVEVCKDESVDLEEFRSYLEKRFDFEQVTVKKFRTWAERRQFNREMKRKQAESERPILPANQKLITLSVQDAPTKKEFVINPNGKSEVCILHEYMQRVLKVRPVYNFFECENPSEPFGASVTIDGVTYGSGTASSKKLAKNKAARATLEILIPDFVKQTSEEKPKDSEELEYFNHISIEDSRVYELTSKAGLLSPYQILHECLKRNHGMGDTSIKFEVVPGKNQKSEYVMACGKHTVRGWCKNKRVGKQLASQKILQLLHPHVKNWGSLLRMYGRESSKMVKQETSDKSVIELQQYAKKNKPNLHILSKLQEEMKRLAEEREETRKKPKMSIVASAQPGGEPLCTVDV
notes: DGCR8, Microprocessor cofactor of Drosha, detected by blot in Flag immunoprecipitates of HEK293T cells; source: HEK293T lysate (cells transfected with Flag-Drosha only)
For the molecule B1, the “fold change of co-precipitated DGCR8 against WT Drosha” value was 2.5 fold.

(Values after article PMC10531876, “PLK1 Regulates MicroRNA Biogenesis through Drosha Phosphorylation” (International Journal of Molecular Sciences, 2023).)
